In the nanobody polyreactivity screen of Harvey et al. (2022):

Assay: yeast display, Sf9 membrane polyspecificity reagent, FACS + sequencing; frameworks hold sequencing errors
Procedure, shortened: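 After 36–48 hours of galactose induction, yeast (Saccharomyces cerevisiae BJ5465) displaying a synthetic nanobody library were stained at 4 °C for 1 hour with 10% biotinylated, detergent-solubilized Sf9 membrane reagent. Streptavidin microbeads enriched the stained cells before FACS sorting into low and high (top ~1%) gates on anti-HA and streptavidin fluorescence. Each clone's polyreactivity label reflects its gate of origin.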

Sequence	polyreactivity (PSR sort gate)
QVQLVESGGGLVQAGGSLRLSCAASGSTFNTNAMGWYRQAPGKERELVAAITSSGGGTYYADSVKGRFTISRDNAKNTVYLQMNSLKPEDTAVYYCNAVSGWYNSITYDYWGQGTQVTVSS	high polyreactivity
QVQLVESGGGLVQAGGSLRLSCAASGSTFNTYAMGWYRQAPGKERELVAAITWRGGRTYYADSVKGRFTISRDNAKNTVYLQMISLKPEDTAVYYCNTLRPRLDGVYGYDYWGQGSQVTVSS	high polyreactivity
QVQLVESGGGLVQAGGSLRLSCAASGSTFNWNAMGWYRPAPGKERELVAAISRSGGRTSYADSVKGRFTISRDNAKNTVYLQMNSLKPEDTAVYYCAAEKVGTRPSRDYDYWGQGTQVTVSS	high polyreactivity
QVQLVESGGGLVQAGGSLRLSCAASGSTFPAYTMGWYRQAPGKERELVAAINVSSGGSTYYADSVKGRFTISRDNAKNTVYLQRNSLKPEDTAVYYCATHGYVAHPYYYPYYYWGQGTQVTVSS	low polyreactivity
QVQLVESGGGLVQAGGSLRLSCAASGSTFPFNAMGWYRQAPGKEREFVAVINSGGDSTYYADSVKGRFTISRDNAKNTVYLQMNSLKPEDTAVYYCNAEDTRNDYDYWGQGTQVTVSS	low polyreactivity
QVQLVESGGGLVQAGGSLRLSCAASGSTFPFYAMGWYRQAPGKERELVAAIRYTGNTYYADSVKGRFTISRDNAKNTVYLQMNSLKPEDTAVYYCAADADYWAYGYWGQGTQVTVSS	low polyreactivity
QVQLVESGGGLVQAGGSLRLSCAASGSTFPGNAMGWYRQAPGNERELVAAIRWSGGRTYYADSVKGRFTISRDNAKNTVYLQMNSLKPEDTAVYYCAARLRKHGYGYWGQGTQVTVSS	low polyreactivity
QVQLVESGGGLVQAGGSLRLSCAASGSTFPHNAMGWYRPAPGKERELVAAISVGGGSTHYADSVKGRFTISRDNAKNTVYLQMNSLKPEDTAVYYCAKDYAYQYSFVTYDYWGQGTQVTVSS	low polyreactivity
QVQLVESGGGLVQAGGSLRLSCAASGSTFPKNAKGWYRQAPGKERELVAAINTGGSTYYADSVKGRFTISRDNAKNTVYLQINSLKPEDTAVYYCAARDNYHRDVGHPYDYWGQGTQVTVSS	low polyreactivity
QVQLVESGGGLVQAGGSLRLSCAASGSTFPKNAMGWTIQAPGKERELVADINTGGSTYYADSVKGRFTISRDNAKNTVYLQMNSLIPEDTAVYYCNTQSFYFVSYSSSRYLRYYWGQVTQVTVSS	low polyreactivity
QVQLVESGGGLVQAGGSLRLSCAASGSTFPKYAMGWYRPAPGKERELVAAITSRGSTYADSVKGRFTISRDNAKNTVYLPMNSLKPVDTAVYYCAKDSRYASRDYWGQGTQVTVSS	high polyreactivity
QVQLVESGGGLVQAGGSLRLSCAASGSTFPKYAMGWYRQAPGKERELVASISVTTGSTYYADSVKGRFTISRDSAKNTVYLQMNSQKPVDTAVFYCAKRTYSRKFRGAYNYWGQGTQVTVSS	high polyreactivity
QVQLVESGGGLVQAGGSLRLSCAASGSTFPPNAMGWYRQAPGKERELVAGINGSGGRTYYADSVKGRFTISRDNAKNTVYLQMNSMKPEDTAVYYCATRLRSEYYYNKWYYHWGQGTQVTVSS	high polyreactivity
QVQLVESGGGLVQAGGSLRLSCAASGSTFPPYVMGWYRQAPGKERELVAAITWSSGSTYYADSVKGRFTISRDNAKNTVYLQMNSLKPEDTAVYYCAARAYRWGQGTQVTVSS	low polyreactivity
QVQLVESGGGLVQAGGSLRLSCAASGSTFPQNVMGWYRQAPGKVRELVAAITRSAGSTYYADSVKGRFTISRDNPKNTVYLQMNSLKPEDTAVYNCNTGRQRGSYYYDYWGQGTQVTVSS	high polyreactivity
QVQLVESGGGLVQAGGSLRLSCAASGSTFPRNAMGWYRLAPGKERELVAAITSGDSTYYADSVNGRFTISRDNAKNTVYLQKNSQKPEDTAVYYCGQGTQVTVSS	low polyreactivity
QVQLVESGGGLVQAGGSLRLSCAASGSTFPSNAMGWYRQAPGKESELVAAISDSGSTTYYADSVKGRFTISRDNAKNTVYLQMNSLKPEDTAVYYCNAYLRFVDVSLDYQLLLEHDYWGQGTQVTVSS	low polyreactivity
QVQLVESGGGLVQAGGSLRLSCAASGSTFPSYAMGWYRQAPGKERELVAAINSGGGTNYADSVKGRFTISRDNAKNTVYLQMNSLKPEDTAVYYCAKSRYDYTKTEGGYWGQGSQVTVSS	low polyreactivity
QVQLVESGGGLVQAGGSLRLSCAASGSTFPSYAMGWYRQAPGKERELVAAINSGGGTNYADSVKGRFTISRDNAKNTVYLQMNSLKPEDTAVYYCATDDPLSQINEQGMDYWGQGTQVTVSS	low polyreactivity
QVQLVESGGGLVQAGGSLRLSCAASGSTFPSYAMGWYRQAPGKERELVAAISRRSSRTYYADSVKGRFTISRDNAKNTVYLQMNSLKPEDTAVYYCNADAGRHSDEYGYDYWGQGTQVTVSS	high polyreactivity
QVQLVESGGGLVQAGGSLRLSCAASGSTFPVNAMGWYRQAPGKERELVARIRGSGGSTYYADSVKGRFTISRDNAKNTVYLQINSLKPEDTAVYYCAARYIGYSSYKYDYWGQGTQVTVSS	high polyreactivity
QVQLVESGGGLVQAGGSLRLSCAASGSTFPVYAMGWYRQAPGKERELVAAISRAGSTNYADSVKGRFTISRDNAKNTVYLQMNSLKPEDTAVYYCAARGYLWAGEWYVRRDYWGQGTQVTVSS	high polyreactivity

Sequence	polyreactivity (PSR sort gate)
QVQLVESGGGLVQAGGSLRLSCAASGSTFPVYAMGWYRQAPGKERELVAAITSGVSTNYADSVKGRFTISRDNAKNTVYLQMNSLKPEDTAFYYCAKDFGLLPIRDDYWGQGTQVTVSS	low polyreactivity
QVQLVESGGGLVQAGGSLRLSCAASGSTFPVYAMGWYRQEPGKERELVAAITSGVSTNYADSVKGRFTISRDNAKNTVYLQMNSLKPEDTAVYYCAKDFGLLPIRDDYWGQGTQVTVSS	low polyreactivity
QVQLVESGGGLVQAGGSLRLSCAASGSTFPWNAMGWYRQAPGKERELVAAIRTGGGRTYYADSVKGRFTISRDNAKNTVYLQMNSLKPEDTAVYYCNAYQSSGRYRNSYGYWGQGTQVTVSS	high polyreactivity
QVQLVESGGGLVQAGGSLRLSCAASGSTFPWYAMGWARQAPGKETELVAAITTSGGTTYYADSVKGRFTISRDNAKNTVYLQMNSLKPEDTAVYYCNKQFGYPWEYYSYSYDYWGQGTQVTVSS	low polyreactivity
QVQLVESGGGLVQAGGSLRLSCAASGSTFPWYAMGWYRQAPGKERELVAAISFSGGSTYYADSVKGRFTISRDNAKNTVYFQMNSLKPEDTAVYYCAAVWGYVIWVDTAVYREYDYWGQGTQVTVSS	high polyreactivity
QVQLVESGGGLVQAGGSLRLSCAASGSTFPYYAMGRYRPAPGKEMELVAAISQNGGSSYYADSVKGRFTISRDNAKNTVYLQINSLKPEDTAVYYCNADGVGGEYRLSGYDYWGQGTQVTVSS	low polyreactivity
QVQLVESGGGLVQAGGSLRLSCAASGSTFPYYAMGWSRQAPGKERELVAAISGSGGTTYYADSVKGRFTISRDNAKNTVYLQMNSLKPEYTAVYYCAVDIGVGYGYYYWGQGTQVTVSS	low polyreactivity
QVQLVESGGGLVQAGGSLRLSCAASGSTFPYYAMGWYRQAPGKERELVAAISQNGGSTYYADSVKGRFTISRDNAKNTVYLQMNSLKPEDTAVYYCNADGVGGEYRLSGYDYWGQGTQVTVSS	low polyreactivity
QVQLVESGGGLVQAGGSLRLSCAASGSTFPYYAMGWYRQAPGKERELVAAISSSGGSTYYADSVKGRFTFSRDNAKNTVYLLMNSLKPEDTAVYYCNVVKSRGLFSYDYWGQGSQVTVSS	high polyreactivity
QVQLVESGGGLVQAGGSLRLSCAASGSTFPYYAMGWYRQAPGKERELVATITTSGVSTYYADSVKGRFTISRDNAKNTVYLQMNSLKPEDTAVYYCAADPPGFTQYGYWGQGTQVTVSS	low polyreactivity
QVQLVESGGGLVQAGGSLRLSCAASGSTFPYYAMGWYRQAPGKERELVAVITSSGSRTYYADSVKGRFTISRDNAKNTVYLQMNSLKPEDTAVYYCARDTRYYRPYRSQYDYWGQGTQVTVSS	high polyreactivity
QVQLVESGGGLVQAGGSLRLSCAASGSTFPYYAMGWYRQATGKERELVAAISSGGRTTYADSVKGRFTISRDNAKNTVYLQMNSLKPEDTAVYYCNRRYTHGGFSKYEYWGQGTQVTVSS	high polyreactivity
QVQLVESGGGLVQAGGSLRLSCAASGSTFQFYAMGWYRQAPGKERELVASITSRGGNTHYADSVKGRFTISRDNAKNTVYLQMNSLKPEDTAVYYCAARGGWYGTYDYWGQGTQVTVSS	low polyreactivity
QVQLVESGGGLVQAGGSLRLSCAASGSTFQFYAMRWYRQAPGKERDLVAAIRSSDDSTYYADSVKGRFTISRDNAKNTVYLQMKSLKPEDTAVYYCAAVLDFYGVWYDYWGQGTQVTVSS	high polyreactivity
QVQLVESGGGLVQAGGSLRLSCAASGSTFQGYSMGWYRPAPGKERELVAAISGSGGNTYYADSVKGRFTISRDNAKNTVYLQMNSLKPEDTAVYYCAAGHVRTDWRYGYWGQGTQVTVSS	low polyreactivity
QVQLVESGGGLVQAGGSLRLSCAASGSTFQINAMGWYRQATGTERELGAAIDGGGDTYYADSVKGRFTISRDNAKNTFYLQMNSLKPEDTAVYYCNARSWARKSNGGSRIRYDYWGQGTQVTVSS	low polyreactivity
QVQLVESGGGLVQAGGSLRLSCAASGSTFQNNAMGWSRQAPGKERELVAGITGGGGNTNYADSVKGRFTISRDNTKNTVYLQMNSRTPEDTAVYYCAADDPWLGVDFGYWGQGTQVTLSS	low polyreactivity
QVQLVESGGGLVQAGGSLRLSCAASGSTFQPYAMGWYRQAPGKERELVAAISWSGVSTSYADSVKGRFTISRDNAKNTVYLQMNSLKPEETAVYYPFYEYYYWVQGTQVTVSS	low polyreactivity
QVQLVESGGGLVQAGGSLRLSCAASGSTFQRYAMGWYRQAPGKERELVAAITSGGSTYYADSVKGRFTISRDNAKNTVYLQMISLKPEDTAVYYCNAAWFYRYGYWGQGTQVTVSS	high polyreactivity
QVQLVESGGGLVQAGGSLRLSCAASGSTFQSNAMGWYRQAPGTEREMVATITRGGGTSYADSVKGRFTISRDNAKNTVYVQMNSLQPEDTAVYYCNARRQRYYTQGRFYYWGQGTQVTVSS	high polyreactivity
QVQLVESGGGLVQAGGSLRLSCAASGSTFQSNARGWYRQAPGKERELVASITSSGVSTYYADSVKGRFTISRDNAKNTVYLQMNSLKPEDTAVYYCAASSYDAYDYGFRFDYWGQGTQVTVSS	low polyreactivity
